Reference: patent US20240043515A1 (Chugai, published 2024)
Substitutions are numbered along the chain they refer to. Names may count otherwise. Values belong to the binder of their own block, whether it stands above or below them.

Assays:
[1] = molecular target: T1, human FcγRIIIa F extracellular domain (human, UniProt P08637 17-208); test: SPR; KD for hFcγRIIb divided by KD for this FcγR
T1 construct: extracellular domain; also called hFcγR IIIa F; FcγRIIIa allotype F158

[2] = molecular target: T2, human FcγRIIIa V extracellular domain (human, UniProt P08637 17-208); test: SPR; KD for hFcγRIIb divided by KD for this FcγR
T2 construct: extracellular domain; also called hFcγR IIIa V; FcγRIIIa allotype V158
T2 sequence (P08637 17-208 F176V): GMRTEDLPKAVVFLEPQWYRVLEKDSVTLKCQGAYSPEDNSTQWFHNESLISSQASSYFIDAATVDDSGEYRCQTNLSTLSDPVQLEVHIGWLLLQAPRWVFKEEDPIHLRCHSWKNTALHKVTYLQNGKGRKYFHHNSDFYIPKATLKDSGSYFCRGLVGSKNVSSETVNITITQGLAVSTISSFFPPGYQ

[3] = molecular target: T3, human FcγRIIa R extracellular domain (human, UniProt P12318 34-217); test: SPR; KD for hFcγRIIb divided by KD for this FcγR
T3 construct: extracellular domain; also called hFcγR IIa R; FcγRIIa allotype R131
T3 sequence (looked up): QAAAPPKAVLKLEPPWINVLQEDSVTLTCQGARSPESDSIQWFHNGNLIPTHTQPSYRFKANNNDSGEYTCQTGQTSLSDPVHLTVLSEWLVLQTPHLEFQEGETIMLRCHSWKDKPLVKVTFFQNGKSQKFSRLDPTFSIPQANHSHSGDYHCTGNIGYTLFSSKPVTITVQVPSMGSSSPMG

[4] = molecular target: T4, human FcγRIIa H extracellular domain (human, UniProt P12318 34-217); test: SPR; KD for hFcγRIIb divided by KD for this FcγR
T4 construct: extracellular domain; also called hFcγR IIa H; FcγRIIa allotype H131
T4 sequence (looked up): T3 sequence (looked up) with R134H

[5] = molecular target: hFcγRIIIaV on Jurkat effector cells (human, UniProt P08637 17-254); test: cell-based or functional assay
hFcγRIIIaV on Jurkat effector cells, sequence (P08637 17-254, form in doubt): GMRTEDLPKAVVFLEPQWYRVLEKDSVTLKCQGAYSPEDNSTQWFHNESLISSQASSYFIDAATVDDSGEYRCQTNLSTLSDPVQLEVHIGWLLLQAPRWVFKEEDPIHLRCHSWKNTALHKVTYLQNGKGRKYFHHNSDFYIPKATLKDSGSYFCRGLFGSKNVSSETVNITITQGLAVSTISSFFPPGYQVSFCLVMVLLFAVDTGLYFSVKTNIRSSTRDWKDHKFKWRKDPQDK

[6] = molecular target: T2, human FcγRIIIa V extracellular domain; test: SPR (Biacore 8K+), antibody captured, FcγR as analyte, 25 C, 1:1 Langmuir model
Description: (§1) The extracellular domains of FcγRs were produced by the method described in WO2014104165. The interaction between the produced antibodies and human FcγRs was analyzed using Biacore 8K+ by the method below. For the running buffer, 50 mM Na-Phosphate, 150 mM NaCl, and 0.05% Tween20 (pH 7.4) was used, and measurement was performed at 25° C. The sensor chip used was a Series S SA chip (GE Healthcare) onto which CaptureSelect Human Fab-kappa Kinetics Biotin Conjugate (Thermo Fisher Scientific) was immobilized. An antibody of interest was captured onto this chip, and each FcγR diluted with the running buffer was allowed to interact with it. The chip was regenerated using 10 mM Glycine-HCl (pH 1.5), and repeatedly used to capture antibodies and perform measurement. The dissociation constants KD (mol/L) of each antibody for FcγRs were calculated using Biacore Insight Evaluation Software, with a steady state affinity model for the dissociation constant for FcγRIIb and a 1:1 Langmuir binding model for the dissociation constants for the other FcγRs (Table 2).

[7] = molecular target: T1, human FcγRIIIa F extracellular domain; test: SPR; KD of G1d divided by KD of this antibody
[8] = molecular target: T2, human FcγRIIIa V extracellular domain; test: SPR; KD of G1d divided by KD of this antibody
[9] = molecular target: T3, human FcγRIIa R extracellular domain; test: SPR; KD of G1d divided by KD of this antibody
[10] = molecular target: T5, human FcγRIa extracellular domain (human, UniProt P12314 16-292); test: SPR; KD of G1d divided by KD of this antibody
T5 construct: extracellular domain; also called hFcγR Ia
T5 sequence (P12314 16-292): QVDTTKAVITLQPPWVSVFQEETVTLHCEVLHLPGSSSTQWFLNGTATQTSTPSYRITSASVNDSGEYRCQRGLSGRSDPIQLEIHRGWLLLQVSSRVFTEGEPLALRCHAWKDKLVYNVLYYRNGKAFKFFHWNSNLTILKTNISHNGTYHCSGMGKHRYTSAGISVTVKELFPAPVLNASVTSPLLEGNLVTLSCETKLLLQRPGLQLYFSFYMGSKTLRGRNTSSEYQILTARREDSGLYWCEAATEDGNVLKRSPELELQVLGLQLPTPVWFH

[11] = molecular target: T4, human FcγRIIa H extracellular domain; test: SPR; KD of G1d divided by KD of this antibody
[12] = molecular target: T6, human FcγRIIb extracellular domain (human, UniProt P31994 43-217); test: SPR; KD of G1d divided by KD of this antibody
T6 construct: extracellular domain; also called hFcγR IIb
T6 sequence (looked up): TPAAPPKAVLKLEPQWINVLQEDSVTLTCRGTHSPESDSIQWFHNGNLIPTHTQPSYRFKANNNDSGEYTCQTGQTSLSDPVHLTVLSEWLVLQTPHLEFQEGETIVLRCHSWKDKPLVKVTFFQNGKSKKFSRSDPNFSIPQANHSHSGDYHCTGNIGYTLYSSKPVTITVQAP

[13] = molecular target: T7, hFcγRIIaH on Jurkat effector cells (human, UniProt P12318 34-317); test: cell-based or functional assay
T7 sequence (looked up): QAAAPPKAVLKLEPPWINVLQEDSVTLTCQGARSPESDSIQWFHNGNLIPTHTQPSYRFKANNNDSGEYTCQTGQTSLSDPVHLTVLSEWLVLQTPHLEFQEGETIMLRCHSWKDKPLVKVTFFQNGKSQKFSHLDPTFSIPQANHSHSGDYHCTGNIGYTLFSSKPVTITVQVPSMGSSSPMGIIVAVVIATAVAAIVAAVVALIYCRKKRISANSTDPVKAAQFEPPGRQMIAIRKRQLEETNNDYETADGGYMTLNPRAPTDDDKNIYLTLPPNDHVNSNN

[14] = molecular target: T6, human FcγRIIb extracellular domain; test: SPR (Biacore 8K+), antibody captured, FcγR as analyte, 25 C, steady state affinity model
Description: as §1

T1 sequence (P08637 17-208): as the sequence (P08637 17-208 F176V) above, with V160F counted along it

A/I ratio (KD for FcγRIIb divided by KD for each FcγR) [1]: 2350 ratio | A/I ratio (KD for FcγRIIb divided by KD for each FcγR) [2]: 6850 ratio | A/I ratio (KD for FcγRIIb divided by KD for each FcγR) [3]: 28.1 ratio | A/I ratio (KD for FcγRIIb divided by KD for each FcγR) [4]: 47.2 ratio | EC50 of reporter gene induction (ADCC Reporter Bioassay, Hepa1-6/hEREG target cells) [5]: 1.07 ng/mL | Kd [6]: 0.516 nM | Relative value to KD between G1d and hFcgRs [7]: 1970 times | Relative value to KD between G1d and hFcgRs [8]: 695 times | Relative value to KD between G1d and hFcgRs [9]: 13.2 times | Relative value to KD between G1d and hFcgRs [10]: 3.2 times | Relative value to KD between G1d and hFcgRs [11]: 15 times | Relative value to KD between G1d and hFcgRs [12]: 2.8 times | EC50 of reporter gene induction (ADCP Reporter Bioassay, Hepa1-6/hEREG target cells) [13]: 17.1 ng/mL
B1: EGL-ART8 (H240-Kn461/L73-k0//H240-H1443/L73-k0) (antibody, human IgG1, kappa)
heavy 1: QDQLVQSGAEVKKPGASVKVSCKASGFNIKDTYIQWVRQAPGQGLEWMGRIDPLRKQTKYREKFEGRVTITADTSTNTAYMELSSLRSEDTAVYYCVRSGREFDYWGQGTLVTVSSASTKGPSVFPLAPSSKSTSGGTAALGCLVKDYFPEPVTVSWNSGALTSGVHTFPAVLQSSGLYSLSSVVTVPSSSLGTQTYICNVNHKPSNTKVDKKVEPKSCDKTHTCPPCPAPEFQWGPMVFLFPPKPKDVLMISRTPEVTCVVVDVSDEEPEVKFNWYVDGVEVHNAKTKPREEQYNATYRVVSVLPVLHQDWLNGKEYKCKVSNDALPAPEEKTISKAKGQPREPQVCTLPPSRDELTKNQVSLWCLVKGFYPSDIAVEWESNGQPENNYKTTPPVLDSDGSFFLYSKLTVDKSRWQQGNVFSCSVMHEALHNHYTQKSLSLSP
heavy 2: QDQLVQSGAEVKKPGASVKVSCKASGFNIKDTYIQWVRQAPGQGLEWMGRIDPLRKQTKYREKFEGRVTITADTSTNTAYMELSSLRSEDTAVYYCVRSGREFDYWGQGTLVTVSSASTKGPSVFPLAPSSKSTSGGTAALGCLVKDYFPEPVTVSWNSGALTSGVHTFPAVLQSSGLYSLSSVVTVPSSSLGTQTYICNVNHKPSNTKVDKKVEPKSCDKTHTCPPCPAPELLAGPSVFLFPPKPKDVLMISRTPEVTCVVVDVSHEEPEVKFNWYVDGVEVHNAKTKPREEQYNATYRVVSVLPVLHQDWLNGKEYKCKVSNDALPAPEEETISKAKGQPREPQVYTLPPSRCELTKNQVSLSCAVKGFYPSDIAVEWESNGQPENNYKTTPPVLDSDGSFFLVSKLTVDKSRWQQGNVFSCSVMHEALHNHYTQKSLSLSP
light: DIQMTQSPSSLSASVGDRVTITCRASQDIHKYIAWYQQKPGQAPRLLIQYTSTLQPGVPSRFSGSGSGTDYTFTISSLQPEDIATYYCLQYEQLRTFGGGTKVEIKRTVAAPSVFIFPPSDEQLKSGTASVVCLLNNFYPREAKVQWKVDNALQSGNSQESVTEQDSKDSTYSLSSTLTLSKADYEKHKVYACEVTHQGLSSPVTKSFNRGEC
notes: Kn461: L234F/L235Q/G236W/S239M/T250V/H268D/D270E/S298A/T307P/K326D/I332E + Y349C/T366W; H1443: G236A/T250V/D270E/S298A/T307P/K326D/I332E/K334E + D356C/T366S/L368A/Y407V

Kd [14]: 5650 nM | Kd [6]: 19 nM | Relative value to KD between G1d and hFcgRs [11]: 1.1 times | Relative value to KD between G1d and hFcgRs [12]: 1.8 times
B2: EGL-afucosyl (H240-G1d/L73-k_glycomab) (antibody)
heavy: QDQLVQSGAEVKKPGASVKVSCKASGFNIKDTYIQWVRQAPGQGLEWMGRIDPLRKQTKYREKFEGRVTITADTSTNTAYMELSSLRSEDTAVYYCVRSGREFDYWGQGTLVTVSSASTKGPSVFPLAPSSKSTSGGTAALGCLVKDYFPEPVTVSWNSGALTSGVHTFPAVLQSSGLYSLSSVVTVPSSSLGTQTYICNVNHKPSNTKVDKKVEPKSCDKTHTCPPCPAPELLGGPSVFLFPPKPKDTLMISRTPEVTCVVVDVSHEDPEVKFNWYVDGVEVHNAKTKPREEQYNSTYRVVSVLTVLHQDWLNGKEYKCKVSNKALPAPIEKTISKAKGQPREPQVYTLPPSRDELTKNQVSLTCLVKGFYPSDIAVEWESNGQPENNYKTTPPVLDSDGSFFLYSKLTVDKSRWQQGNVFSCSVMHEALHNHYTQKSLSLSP
light: B1 light
modifications: afucosylated (fucose-deficient sugar chain) ; Afucosylated (fucose-deficient) N-glycan at Asn297 (EU) of each heavy chain; the letters cannot carry this.
notes: Same heavy chain as EGL-G1d, produced as a fucose-deficient antibody; also called afucosylated antibody
